Assay results: paper PMC11871449

Target: TDP-43 RRMs (RRM1-RRM2) (UniProt Q13148)
Test: EMSA (multiplexed)
Settings: 20 mM Tris-HCl pH 7.5, 150 mM KCl, 5 mM MgCl2, 10% glycerol, 30 min, room temperature, 2 nM each labeled RNA (mEMSA), 5.5% TBE gel (4% for competition)
[1] = 5 mM Mg2+, fluorophore-UTP incorporated during transcription
[2] = 5 mM Mg2+, fluorophore-UTP incorporated during transcription (labeled form)

Sequence of UniProt Q13148 (Q13148 101-269): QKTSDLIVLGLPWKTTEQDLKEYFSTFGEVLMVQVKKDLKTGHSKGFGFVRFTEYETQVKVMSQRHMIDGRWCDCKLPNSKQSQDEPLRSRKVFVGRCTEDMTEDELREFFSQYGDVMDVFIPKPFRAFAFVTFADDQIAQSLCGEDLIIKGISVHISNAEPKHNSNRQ

Sequence | Kd [1] | Kd [2] | other results
AACACCAUGCUGGUUAUUUUGGCGGCUGUAGUUGUGGGGGGAUGUGUGUGUGCACGUGUGUGUGUGUGUGUGUGUGUGUGUGUGUGUGUGUGUUCUGUGACCUCCUGUCCCCAUGGUACGUCCCACCCUGUCCCCAGAUCCCCUAUUCCCUCCACAAUAACAGAAACACUCCCAGGGACUCUGGGGAGAGGCUGAGGACAAAUACCUGCUGUCACUCCAGAGGACAUUUUUUUUAGCAAUAAAAUUGAG [SLC1A5[2620-2869] 3'UTR] | 82 nM | – | –
AUCCCGCUGCUAUUAGAAUGCAUUGUGAAACGACUGGAGUAUGAUUAAAAGUUGUGUUCCCCAAUGCUUGGAGUAGUGAUUGUUGAAGGAAAAAAUCCAGCUGAGUGAUAAAGGCUGAGUGUUGAGGAAAUUUCUGCAGUUUUAAGCAGUCGUAUUUGUGAUUGAAGCUGAGUACAUUUUGCUGGUGUAUUUUUAGGUAAAAUGCUUUUUGUUCAUUUCUGGUGGUGGGAGGGGACUGAAGCCUUUAGUCUUUUCCAGAUGCAACCUUAAAAUCAGUGACAAGAAACAUUCCAAACAAGC [MALAT1[6638-6938]] | – | – | Kd (fluorophore-UTP incorporated during transcription): 127 nM
GAUUGAUGGUGGUGCCGAGGCAUGAAAGGCUAGUAUGAGCGAGAAAAGGAGAGAGCGCGUGCAGAGACUUGGUGGUGCAUAAUGGAUAUUUUUUAACUUGGCGAGAUGUGUCUCUCAAUCCUGUGGCUUUGGUGAGAGAGUGUGCG [TARDBP[2140-2283] 3'UTR] | – | 272 nM | –
GCGAGGAGCCUUUCAUCCGAAGGCGGGACGAUGCCGGAUAAUCGGCAGCCGAGGAACCGGCAGCCGAGGAUCCGCUCCGGGAACGAGCCUCGUUCCGCGCCCGCCAUGGAACCGGAUGGUCGCGGUGCCUGGGCCCACAGUCGCGCCGCGCUCGACCGCCUGGAGAAGCUGCUGCGCUGCUCGCGUUGUACUAACAUUCUGAGAGAGCC [BARD1[86-310] negative control] | – | 1790 nM | –
GUGGGCUUUUCCAUUGUCCCCCUGGCCUCCAGGCUCCUCCUCUGCCUCUCCAUGGAGUGGGUGGGGAGGUGGUGGGGGCCGGCGUCCCCUGCGUGUGUGUGUGUGUGUGUGUGUGUGUGUGGAUGUAUUGACCUGUGUUUCCCAAGACAGCAGGUGCCACGGCCCGCCCCGCCUGCCAGCCCGAAUUCCCGUUCUCCUGUGUCUACUAACAAGGACGGAUCCAGCU [CSNK1E[2054-2264] 3'UTR] | 101 nM | – | –
UGGCUAUCCUUUAAUGAUGCGUGUGGAAUGUGUGUGUGUGCUCAGGCAAUUAUUUUGCUAAGAAUGUGAAUUCAAGUGCAGCUCAAUACUAGCUUCAGUAUAAAAACUGUACAGAUUUUUGUAUAGCUGAUAAGAUUCUCUGUAGAGAAAAUACUUUUAAAAAAUGCAGGUUGUAGCUUUUUGAUGGGCUACUCAUACAGUUAGAUUUUACAGCUUCUGAUGUUGAAUGUUCCUAAAUAUUUAAUGGUUUUUUUAAUUUCUUGUGUAUGGUAGCACAGCAAAGCUU [HMGB2[739-1022] 3'UTR] | 148 nM | – | –
